Patent US20230243070A1 (Molecular Partners, published 2023)

Columns and labels:
[1] = molecular target: NYESOAApMHC (HLA-A*0201:NYESO1-9VAA), biotinylated recombinant complex (human); assay: SPR (ProteOn), biotinylated pMHC on NLC chip
[2] = molecular target: T1, EBNApMHC (HLA-A*0201:EBNA-1), biotinylated recombinant complex (human; Epstein Barr virus); assay: SPR (ProteOn), biotinylated pMHC on NLC chip
[3] = molecular target: T2, NYESOpMHC (HLA-A*0201:NYESO1-9V), biotinylated recombinant complex (human); assay: SPR (ProteOn), biotinylated pMHC on NLC chip, PBS with Tween
T2 construct: also called NY-ESO-1 peptide-MHC complex

[4] = molecular target: T1, EBNApMHC (HLA-A*0201:EBNA-1), …; assay: ribosome display selection, crude extract HTRF

B1: DARPin® protein #29 (designed binder)
chain: MRGSHHHHHHGSDLGKKLLQAARAGQLDEVRELLKAGADVNAKDRAGSTPLHLAAFRGHLEIVEVLLKAGADVNAKDAAGYTPLHLAALYGHLEIVEVLLKAGADVNAKDHAGSTPLHLAALAGHLEIVEVLLKAGADVNAQDKSGKTPADLAARAGHQDIAEVLQKAA
With B1 the binding result [1] was “no binding”, the binding result [2] was “no binding (tested: 3.7 nM to 300 nM, or 250 nM single trace)” and the Kd [3] was 0.635 nM.

B2: DARPin® protein #31 (designed binder)
chain: MRGSHHHHHHGSDLGKKLLQAARAGQLDEVRELLKAGADVNAKDATGQTPLHVAAFRGHLEIVEVLLKAGADVNAKDKAGYTPLHIAAYAGHLEIVEVLLKAGADVNAKDHAGWTPLHLAAILGHLEIVEVLLKAGADVNAQDKSGKTPADLAARAGHQDIAEVLQKAA
For B2, the binding result [1] was “no binding”, the binding result [2] was “no binding (tested: 3.7 nM to 300 nM, or 250 nM single trace)” and the Kd [3] was 1.32 nM.

B3: DARPin® protein #33 (designed binder)
chain: MRGSHHHHHHGSDLGKKLLQAARAGQLDEVRELLKAGADVNAKDAIGQTPLHLAAFRGHLEIVEVLLKAGADVNAKDVAGWTPLHIAAAYGHLEIVEVLLKAGADVNAKDAYGQTPLHLAAFQGHLEIVEVLLKAGADVNAQDKSGKTPADLAARAGHQDIAEVLQKAA
For B3, the binding result [1] was “no binding”, the binding result [2] was “no binding (tested: 3.7 nM to 300 nM, or 250 nM single trace)” and the Kd [3] was 0.108 nM.

B4: DARPin® protein #30 (designed binder)
chain: MRGSHHHHHHGSDLGKKLLQAARAGQLDEVRELLKAGADVNAKDRFGIPLHIAASQGHLEIVEVLLKAGADVNAKDHWGETPLHLAAVFGHLEIVEVLLKAGADVNAKDHTGQTPLHLAAYLGHLEIVEVLLKAGADVNAQDKSGKTPADLAARAGHQDIAEVLQKAA
B4 was tested, and the binding result [1] was “no binding”, the binding result [2] was “no binding (tested: 3.7 nM to 300 nM, or 250 nM single trace)” and the Kd [3] was 2.33 nM.

B5: DARPin® protein #32 (designed binder)
chain: MRGSHHHHHHGSDLGKKLLQAARAGQLDEVRELLKAGADVNAKDYFGSTPLHLAQLGHLEIVEVLLKAGADVNAKDYQGHTPLHVDAFHGHLEIVEVLLKAGADVNAKDQWGVTPLHLAAEWGHLEIVEVLLKAGADVNAQDKSGKTPADLAARAGHQDIAEVLQKAA
In the case of B5, the binding result [1] is reported as “no binding”, the binding result [2] is reported as “no binding (tested: 3.7 nM to 300 nM, or 250 nM single trace)” and the Kd [3] is reported as 1.63 nM.

B6: DARPin® protein #23 (designed binder)
chain: MRGSHHHHHHGSDLGIKLLYAANSGQDDEVRILLAAGADVNAKDEYGDTPLHKAAEYGHLEIVEVLLKAGADVNAKDVYGITPLHLAAIFGHLEIVEVLLKAGADVNAQDKKGHTPADLAAFVGHEDIAEVLQKAA
In the case of B6, the binding result [1] is reported as “no binding”, the binding result [2] is reported as “no binding (tested: 3.7 nM to 300 nM, or 250 nM single trace)” and the Kd [3] is reported as 0.0939 nM.

B7: DARPin® protein #24 (designed binder)
chain: MRGSHHHHHHGSDLGEKLLYAAFYGQDDEVRILLTAGADVNAKDKYGLTPLHRAATHGHLEIVEVLLKAGADVNAKDEWGTTPLHIAAIFGHLEIVEVLLKAGADVNAQDEQGNTPADLAAVIGHEDIAEVLQKAA
B7 was tested, and the binding result [1] was “no binding”, the binding result [2] was “no binding (tested: 3.7 nM to 300 nM, or 250 nM single trace)” and the Kd [3] was 0.939 nM.

B8: DARPin® protein #25 (designed binder)
chain: MRGSHHHHHHGSDLGNKLLSAAIRGQDDEVRILLAAGADVNAKDIHGHTPLHAAAQFGHLEIVEVLLKAGADVNAKDFYGLTPLHLAAIFGHLEIVEVLLKAGADVNAQDEEGKTPADLAAVIGHEDIAEVLQKAA
With B8 the binding result [1] was “no binding”, the binding result [2] was “no binding (tested: 3.7 nM to 300 nM, or 250 nM single trace)” and the Kd [3] was 0.172 nM.

B9: SEQ ID NO 93 (designed binder)
chain: GSDLGTKLLFAATLGQDDEVRILLAAGADVNAKDTIGRTPLHVAAHYGHLEIVEVLLKAGADVNAKDIYGFTPLHLAAYFGHLEIVEVLLKAGADVNAQDKTGKTPADLAAVIGHEDIAEVLQKAA
B9: binds [4].

B10: SEQ ID NO 94 (designed binder)
chain: GSDLGQKLLEAARKGQDDEVRELLKAGADVNAKDKAGWTPLHLAAYFGHLEIVEVLLKAGADVNAKDVIGWTPLHLAAWQGHLEIVEVLLKAGADVNAQDLKGQTPADLAAQEGNEDIAEVLQKAA
B10: binds [4].

B11: SEQ ID NO 95 (designed binder)
chain: GSDLGQKLLRAAQAGQDDEVRELLKAGADVNAKDEVGWTPLHLAAAWGHLEIVEVLLKAGADVNAKDHFGITPLHVAAELGHLEIVEVLLKAGADVNAQDLAGRAPADLAALEGHEDIAEVLQKAA
B11: binds [4].

B12: SEQ ID NO 96 (designed binder)
chain: GSDLGKKLLQAARAGQLDEVRELLKAGADVNAKDLTGITPLHIAAREGHLEIVEVLLKAGADVNAKDAWGFTPLHVAAWTGHLEIVEVLLKAGADVNAKDLLGETPLHLAAEAGHLEIVEVLLKAGADVNAQDKSGKTPADLAARAGHQDIAEVLQKAA
B12: binds [4].

B13: SEQ ID NO 106 (designed binder)
chain: GSDLGKKLLQAARAGQLDEVRELLKAGADVNAKDLAGVTPLHVAARAGHLEIVEVLLKAGADVNAKDAWGFTPLHIAAYQGHLEIVEVLLKAGADVNAKDLLGSTPLHVAAETGHLEIVEVLLKAGADVNAQDKSGKTPADLAARAGHLDIAEVLQKAA
B13: binds [4].

B14: SEQ ID NO 107 (designed binder)
chain: GSDLGKKLLQAARAGQLDEVRELLKAGADVNAKDLTGITPLHVAARSGHPEIVEVLLKAGADVNAKDAWGFTPLHVAAYKGHLEIVEVLLKAGADVNAKDQLGETPLHLAAAEGHLEIVEVLLKAGADVNAQDKSGKTPADLAARAGHQDIAEVLQKAA
B14: binds [4].

B15: SEQ ID NO 108 (designed binder)
chain: GSDLGKKLLQAARAGQLDEVRELLKAGADVNAKDQTGWTPLHIAAHTGHLEIVEVLLKAGADVNAKDAVGFTPLHVAAWSGHLEIVEVLLKDGADVNAKDTSGATPLHLAAEWGHLEIVEVLLKAGADVNAQDKSGKTPADLAARAGHQDIAEVLQKAA
B15: binds [4].

B16: SEQ ID NO 109 (designed binder)
chain: GSDLGKKLLQAARAGQLDEVRELLKAGADVNAKDLSGVTPLHIAARSGHLEIVEVLLKAGADVNAKDAWGYTPLHVAAEHGHLEIVEVLLKAGADVNAKDHLGSTPLHIAASHGHLEIVEVLLKAGADVNAQDKSGKTPADLAARAGHQDIAEVLQKAA
B16: binds [4].

B17: SEQ ID NO 97 (designed binder)
chain: GSDLGKKLLQAARAGQLDEVRELLKADADVNAKDTWGYTPLHLAAFHGHLEIVEVLLKAGADVNAKDELGKTPLHLAAYVGPLEIVEVLLKAGADVNAKDQHGYTPLHIAAAYGHLEIVEVLLKAGADVNAQDKSGKTPADLAARAGHQDIAEVLQKAA
B17: binds [4].

B18: SEQ ID NO 98 (designed binder)
chain: GSDLGDKLLFAAELGQDDEVRILLAAGADVNAKDSFGQTPLHRVAANHGHLEIVEVLLKAGADVNAKDSSGHTPLHVAALTGHLEIVEVLLKAGADVNAQDESGFTPADLAADVGHEDIAEVLQKAA
B18: binds [4].

B19: SEQ ID NO 99 (designed binder)
chain: GSDLGAKLLFAAILGQDDEVRILLAAGADVNAKDETGHTPLHHAAHYGHLEIVEVLLKAGADVNAKDQYGFTPLHLAAYYGHLEIVEVLLKAGADVNAQDDDGITPADLAAAHGHEDIAEVLQKAA
B19: binds [4].

B20: SEQ ID NO 100 (designed binder)
chain: GSDLGSKLLQAAAVGQDDEVRILLAAGADVNAKDDFGETPLHLAAWHGHLEIVEVLLKAGADVNAKDEQGFTPLHWAALTGHLEIVEVLLKAGADVNAQDKQGITPADLAANAGHEDIAEVLQKAA
B20: binds [4].

B21: SEQ ID NO 101 (designed binder)
chain: GSDLGEKLLAAALVGQDDEVRILLAVGADVNAKDVAGRTPLHRAALAGHLEIVEVLLKAGADVNAKDQSGFTPLHLAAVDGHLEIVEVLLKAGADVNAQDEIGATPADLAARIGHEDIAEVLQKAA
B21: binds [4].

B22: SEQ ID NO 102 (designed binder)
chain: GSDLGHKLLIAAYLGQDDEVRILLAAGADVNAKDDFGITPLHVAAQVGHLEIVEVLLKAGADVNAKDKSGLTPLHLAAYYGHLEIVEDLLKAGADVNAQDYSGETPADLAASLGHEDIAEVLQKAA
B22: binds [4].

B23: SEQ ID NO 103 (designed binder)
chain: GSDLGNKLLWAAYQGQDDEVRILLAAGADVNAKDYLGWTPLHIAATSGHLEIVEVLLKAGADVNAKDWYGYTPLHLAAEWGHLEIVEVLLKAGADVNAQDKSGKTPADLAADSGHEDIAEVLQKAA
B23: binds [4].

B24: SEQ ID NO 104 (designed binder)
chain: GSDLGQKLLQAAQLGQDDEVRELLKAGADVNAKDTFGQTPLHPAAWSGHLEIVEVLLKAGADVNAKDKWGVTPLHLAAVSGHLEIVEVLLKAGADVNAQDLEGRTPADLAAKQGHEDIAEVLQKAA
B24: binds [4].

B25: SEQ ID NO 105 (designed binder)
chain: GSDLGKKLLQAARAGQLDEVRELLKAGADVNAKDQEGRTPLHIAAAHGHLEIVEVLLKAGADVNAKDAYGYTPLHLAAFIGHLEIVEVLLKAGAEVNAKDKYGETPLHIAALTGHLEIVEVLLKAGADVNAQDKSGKTPADLAARAGHQDIAEVLQKAA
B25: binds [4].

B26: SEQ ID NO 110 (designed binder)
chain: GSDLGKKLLQAARAGQLDEVRELLKAGADVNAKDAAGWTPLHLAAAEGHLEIVEVLLKAGADVNAKDVVGQTPLHVAAVIGHLEIVEVLLKAGADVNAKDSAGYTPLHLAAREGHLEIVEVLLKAGADVNAQDKSGKTPADLAARAGHQDIAEVLQKAA
B26: binds [4].
